From patent US20140105889A1 (published 2014)

T1: human FcγRIIb (human, UniProt P31994 43-217, limits assumed)
T1 construct: also called FcgRIIb; FcγIIB
T1 sequence: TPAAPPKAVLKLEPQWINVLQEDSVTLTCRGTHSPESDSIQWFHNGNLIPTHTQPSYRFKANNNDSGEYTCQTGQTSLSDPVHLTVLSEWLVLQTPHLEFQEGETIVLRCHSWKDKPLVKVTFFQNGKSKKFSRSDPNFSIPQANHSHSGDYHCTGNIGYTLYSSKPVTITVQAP

T2: human FcγRIIa type H (human, UniProt P12318 36-217)
T2 construct: also called FcgRIIaH; FcγRIIa(H)
T2 sequence: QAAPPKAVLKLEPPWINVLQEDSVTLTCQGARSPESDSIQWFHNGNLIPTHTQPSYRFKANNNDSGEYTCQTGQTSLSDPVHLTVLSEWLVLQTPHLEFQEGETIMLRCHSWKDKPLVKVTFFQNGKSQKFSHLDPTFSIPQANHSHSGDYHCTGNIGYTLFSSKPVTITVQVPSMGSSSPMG

T3: human FcγRIIb (human, UniProt P31994 43-217)
T3 construct: also called FcγIIB
T3 sequence: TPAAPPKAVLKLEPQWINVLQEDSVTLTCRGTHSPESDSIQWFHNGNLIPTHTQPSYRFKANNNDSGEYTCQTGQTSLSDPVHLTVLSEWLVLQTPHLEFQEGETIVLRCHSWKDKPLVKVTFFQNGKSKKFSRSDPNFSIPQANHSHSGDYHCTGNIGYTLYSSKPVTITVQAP


What was measured:
[1] = target: T1, human FcγRIIb; assay: SPR (Biacore); binding amount divided by that of control IL6R-BF648/IL6R-L, x100
Procedure: (§1) According to the following method, relative binding activities were calculated for the results of analyzing interactions with the respective FcγRs.

[2] = target: T2, human FcγRIIa type H; assay: as above
Procedure: as §1

[3] = target: T4, human FcγRIa (human, UniProt P12314 16-292, limits assumed); assay: as above
T4 construct: also called FcgRIa; CD64
T4 sequence (P12314 16-292 limits assumed): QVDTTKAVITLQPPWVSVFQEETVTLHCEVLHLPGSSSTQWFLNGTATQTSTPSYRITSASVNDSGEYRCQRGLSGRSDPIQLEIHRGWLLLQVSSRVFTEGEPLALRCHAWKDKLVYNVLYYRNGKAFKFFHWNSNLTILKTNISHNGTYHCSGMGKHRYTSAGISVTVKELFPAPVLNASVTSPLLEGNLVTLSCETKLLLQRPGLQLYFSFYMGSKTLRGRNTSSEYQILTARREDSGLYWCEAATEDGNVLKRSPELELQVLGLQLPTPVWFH
Procedure: as §1

[4] = target: T5, human FcγRIIIa type V (human, UniProt P08637 17-208, limits assumed); assay: as above
T5 construct: The assay used allotype V158; also called FcgRIIIaV; FcγRIIIa(V)
T5 sequence (P08637 other isoform, or with tags, fused parts or gaps limits assumed): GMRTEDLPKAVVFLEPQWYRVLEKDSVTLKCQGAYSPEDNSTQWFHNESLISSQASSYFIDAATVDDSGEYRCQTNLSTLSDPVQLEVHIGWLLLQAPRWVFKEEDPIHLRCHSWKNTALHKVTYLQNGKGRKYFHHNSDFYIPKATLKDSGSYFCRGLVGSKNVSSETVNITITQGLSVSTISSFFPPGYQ
Procedure: as §1

[5] = target: T3, human FcγRIIb; assay: SPR (Biacore); KD of parent IL6R-B3/IL6R-L for FcγRIIb divided by KD of the variant for FcγRIIb
Source text: Furthermore, KD(IIaR)/KD(IIb) and KD(IIaH)/KD(IIb) in the table respectively represent the value obtained by dividing the KD value of each variant for FcγRIIaR by the KD value of each variant for FcγRIIb, and the value obtained by dividing the KD value of each variant for FcγRIIaH by the KD value of each variant for FcγRIIb.

[6] = target: T6, human FcγRIIIa type V (allotype V158) (human, UniProt P08637 17-208, limits assumed); assay: SPR (Biacore), antibody captured on the chip, FcγR as analyte
T6 construct: the assay used allotype V158; also called FcγRIIIaV; FcγRIIIa(V)
T6 sequence (P08637 other isoform, or with tags, fused parts or gaps limits assumed): as above

Binder | relative binding activity [1] | relative binding activity [2] | relative binding activity [3] | relative binding activity [4] | KD(IIb) of the parent polypeptide/KD(IIb) of the altered polypeptide [5] | Kd [6] [µM]
IL6R-BP208/IL6R-L (antibody, human IgG1, The common L chain is IL6R-L; copies: 2 + 2) heavy: QVQLQESGPGLVKPSETLSLTCAVSGHSISHDHAWSWVRQPPGEGLEWIGFISYSGITNYNPSLQGRVTISRDNSKNTLYLQMNSLRAEDTAVYYCARSLARTTAMDYWGEGTLVTVSSASTKGPSVFPLAPSSKSTSGGTAALGCLVKDYFPEPVTVSWNSGALTSGVHTFPAVLQSSGLYSLSSVVTVPSSSLGTQTYICNVNHKPSNTKVDKKVEPKSCDKTHTCPPCPAPDLLGDDSVFLFPPKPKDTLMISRTPEVTCVVVDVSDEDGEVKFNWYVDGVEVHNAKTKPREEQYNSTYRVVSVLTVLHQDWLNGKEYKCKVSNKALPRPIEKTISKAKGQPREPQVYTLPPSRDELTKNQVSLTCLVKGFYPSDIAVEWESNGQPENNYKTTPPVLDSDGSFFLYSKLTVDKSRWQQGNVFSCSVMHEALHNHYTQESLSLSP light: DIQMTQSPSSLSASVGDRVTITCRASQDISSYLNWYQQKPGKAPKLLIYYTSRLHSGVPSRFSGSGSGTDFTFTISSLQPEDIATYYCQQGNTLPYTFGQGTKVEIK | 188 % of IL6R-BF648/IL6R-L | 310 % of IL6R-BF648/IL6R-L | 81 % of IL6R-BF648/IL6R-L | 118 % of IL6R-BF648/IL6R-L | – | –
IL6R-BP209/IL6R-L (antibody, human IgG1, The common L chain is IL6R-L; copies: 2 + 2) heavy: QVQLQESGPGLVKPSETLSLTCAVSGHSISHDHAWSWVRQPPGEGLEWIGFISYSGITNYNPSLQGRVTISRDNSKNTLYLQMNSLRAEDTAVYYCARSLARTTAMDYWGEGTLVTVSSASTKGPSVFPLAPSSKSTSGGTAALGCLVKDYFPEPVTVSWNSGALTSGVHTFPAVLQSSGLYSLSSVVTVPSSSLGTQTYICNVNHKPSNTKVDKKVEPKSCDKTHTCPPCPAPELLGDDSVFLFPPKPKDTLMISRTPEVTCVVVDVSDEDGEVKFNWYVDGVEVHNAKTKPREEQYNSTYRVVSVLTVLHQDWLNGKEYKCKVSNAALPRPIEKTISKAKGQPREPQVYTLPPSRDELTKNQVSLTCLVKGFYPSDIAVEWESNGQPENNYKTTPPVLDSDGSFFLYSKLTVDKSRWQQGNVFSCSVMHEALHNHYTQESLSLSP light: DIQMTQSPSSLSASVGDRVTITCRASQDISSYLNWYQQKPGKAPKLLIYYTSRLHSGVPSRFSGSGSGTDFTFTISSLQPEDIATYYCQQGNTLPYTFGQGTKVEIK | 186 % of IL6R-BF648/IL6R-L | 267 % of IL6R-BF648/IL6R-L | 68 % of IL6R-BF648/IL6R-L | 153 % of IL6R-BF648/IL6R-L | – | –
IL6R-BP212/IL6R-L (antibody, human IgG1, The common L chain is IL6R-L; copies: 2 + 2) heavy: QVQLQESGPGLVKPSETLSLTCAVSGHSISHDHAWSWVRQPPGEGLEWIGFISYSGITNYNPSLQGRVTISRDNSKNTLYLQMNSLRAEDTAVYYCARSLARTTAMDYWGEGTLVTVSSASTKGPSVFPLAPSSKSTSGGTAALGCLVKDYFPEPVTVSWNSGALTSGVHTFPAVLQSSGLYSLSSVVTVPSSSLGTQTYICNVNHKPSNTKVDKKVEPKSCDKTHTCPPCPAPDLLGGDSVFLFPPKPKDTLMISRTPEVTCVVVDVSDEDGEVKFNWYVDGVEVHNAKTKPREEQDNSTYRVVSVLTVLHQDWLNGKEYKCKVSNKALPRPIEKTISKAKGQPREPQVYTLPPSRDELTKNQVSLTCLVKGFYPSDIAVEWESNGQPENNYKTTPPVLDSDGSFFLYSKLTVDKSRWQQGNVFSCSVMHEALHNHYTQESLSLSP light: DIQMTQSPSSLSASVGDRVTITCRASQDISSYLNWYQQKPGKAPKLLIYYTSRLHSGVPSRFSGSGSGTDFTFTISSLQPEDIATYYCQQGNTLPYTFGQGTKVEIK | 173 % of IL6R-BF648/IL6R-L | 135 % of IL6R-BF648/IL6R-L | 117 % of IL6R-BF648/IL6R-L | 122 % of IL6R-BF648/IL6R-L | – | –
IL6R-BP183/IL6R-L (antibody, human IgG1, Anti-human IL-6 receptor human IgG1 variant; copies: 2 + 2) heavy: QVQLQESGPGLVKPSETLSLTCAVSGHSISHDHAWSWVRQPPGEGLEWIGFISYSGITNYNPSLQGRVTISRDNSKNTLYLQMNSLRAEDTAVYYCARSLARTTAMDYWGEGTLVTVSSASTKGPSVFPLAPSSKSTSGGTAALGCLVKDYFPEPVTVSWNSGALTSGVHTFPAVLQSSGLYSLSSVVTVPSSSLGTQTYICNVNHKPSNTKVDKKVEPKSCDKTHTCPPCPAPDYLGGDSVFLFPPKPKDTLMISRTPEVTCVVVDVSHEDGEVKFNWYVDGVEVHNAKTKPREEQYNSTYRVVSVLTVLHQDWLNGKEYKCKVSNAALPKPIEKTISKAKGQPREPQVYTLPPSRDELTKNQVSLTCLVKGFYPSDIAVEWESNGQPENNYKTTPPVLDSDGSFFLYSKLTVDKSRWQQGNVFSCSVMHEALHNHYTQESLSLSP light: DIQMTQSPSSLSASVGDRVTITCRASQDISSYLNWYQQKPGKAPKLLIYYTSRLHSGVPSRFSGSGSGTDFTFTISSLQPEDIATYYCQQGNTLPYTFGQGTKVEIK | – | – | – | – | 12.9 | 56
IL6R-BP186/IL6R-L (antibody, human IgG1, Anti-human IL-6 receptor human IgG1 variant; copies: 2 + 2) heavy: QVQLQESGPGLVKPSETLSLTCAVSGHSISHDHAWSWVRQPPGEGLEWIGFISYSGITNYNPSLQGRVTISRDNSKNTLYLQMNSLRAEDTAVYYCARSLARTTAMDYWGEGTLVTVSSASTKGPSVFPLAPSSKSTSGGTAALGCLVKDYFPEPVTVSWNSGALTSGVHTFPAVLQSSGLYSLSSVVTVPSSSLGTQTYICNVNHKPSNTKVDKKVEPKSCDKTHTCPPCPAPDYLGDDSVFLFPPKPKDTLMISRTPEVTCVVVDVSHEDGEVKFNWYVDGVEVHNAKTKPREEQDNSTYRVVSVLTVLHQDWLNGKEYKCKVSNAALPKPIEKTISKAKGQPREPQVYTLPPSRDELTKNQVSLTCLVKGFYPSDIAVEWESNGQPENNYKTTPPVLDSDGSFFLYSKLTVDKSRWQQGNVFSCSVMHEALHNHYTQESLSLSP light: DIQMTQSPSSLSASVGDRVTITCRASQDISSYLNWYQQKPGKAPKLLIYYTSRLHSGVPSRFSGSGSGTDFTFTISSLQPEDIATYYCQQGNTLPYTFGQGTKVEIK | – | – | – | – | 50.7 | 49
IL6R-BP187/IL6R-L (antibody, human IgG1, Anti-human IL-6 receptor human IgG1 variant; copies: 2 + 2) heavy: QVQLQESGPGLVKPSETLSLTCAVSGHSISHDHAWSWVRQPPGEGLEWIGFISYSGITNYNPSLQGRVTISRDNSKNTLYLQMNSLRAEDTAVYYCARSLARTTAMDYWGEGTLVTVSSASTKGPSVFPLAPSSKSTSGGTAALGCLVKDYFPEPVTVSWNSGALTSGVHTFPAVLQSSGLYSLSSVVTVPSSSLGTQTYICNVNHKPSNTKVDKKVEPKSCDKTHTCPPCPAPEYLGGDSVFLFPPKPKDTLMISRTPEVTCVVVDVSHEDGEVKFNWYVDGVEVHNAKTKPREEQYNSTYRVVSVLTVLHQDWLNGKEYKCKVSNAALPKPIEKTISKAKGQPREPQVYTLPPSRDELTKNQVSLTCLVKGFYPSDIAVEWESNGQPENNYKTTPPVLDSDGSFFLYSKLTVDKSRWQQGNVFSCSVMHEALHNHYTQESLSLSP light: DIQMTQSPSSLSASVGDRVTITCRASQDISSYLNWYQQKPGKAPKLLIYYTSRLHSGVPSRFSGSGSGTDFTFTISSLQPEDIATYYCQQGNTLPYTFGQGTKVEIK | – | – | – | – | 1.7 | 56
IL6R-BP188/IL6R-L (antibody, human IgG1, Anti-human IL-6 receptor human IgG1 variant; copies: 2 + 2) heavy: QVQLQESGPGLVKPSETLSLTCAVSGHSISHDHAWSWVRQPPGEGLEWIGFISYSGITNYNPSLQGRVTISRDNSKNTLYLQMNSLRAEDTAVYYCARSLARTTAMDYWGEGTLVTVSSASTKGPSVFPLAPSSKSTSGGTAALGCLVKDYFPEPVTVSWNSGALTSGVHTFPAVLQSSGLYSLSSVVTVPSSSLGTQTYICNVNHKPSNTKVDKKVEPKSCDKTHTCPPCPAPDLLGDDSVFLFPPKPKDTLMISRTPEVTCVVVDVSDEDGEVKFNWYVDGVEVHNAKTKPREEQYNSTYRVVSVLTVLHQDWLNGKEYKCKVSNKALPKPIEKTISKAKGQPREPQVYTLPPSRDELTKNQVSLTCLVKGFYPSDIAVEWESNGQPENNYKTTPPVLDSDGSFFLYSKLTVDKSRWQQGNVFSCSVMHEALHNHYTQESLSLSP light: DIQMTQSPSSLSASVGDRVTITCRASQDISSYLNWYQQKPGKAPKLLIYYTSRLHSGVPSRFSGSGSGTDFTFTISSLQPEDIATYYCQQGNTLPYTFGQGTKVEIK | – | – | – | – | 87.6 | 68
IL6R-BP190/IL6R-L (antibody, human IgG1, Anti-human IL-6 receptor human IgG1 variant; copies: 2 + 2) heavy: QVQLQESGPGLVKPSETLSLTCAVSGHSISHDHAWSWVRQPPGEGLEWIGFISYSGITNYNPSLQGRVTISRDNSKNTLYLQMNSLRAEDTAVYYCARSLARTTAMDYWGEGTLVTVSSASTKGPSVFPLAPSSKSTSGGTAALGCLVKDYFPEPVTVSWNSGALTSGVHTFPAVLQSSGLYSLSSVVTVPSSSLGTQTYICNVNHKPSNTKVDKKVEPKSCDKTHTCPPCPAPELLGDDSVFLFPPKPKDTLMISRTPEVTCVVVDVSDEDGEVKFNWYVDGVEVHNAKTKPREEQYNSTYRVVSVLTVLHQDWLNGKEYKCKVSNKALPKPIEKTISKAKGQPREPQVYTLPPSRDELTKNQVSLTCLVKGFYPSDIAVEWESNGQPENNYKTTPPVLDSDGSFFLYSKLTVDKSRWQQGNVFSCSVMHEALHNHYTQESLSLSP light: DIQMTQSPSSLSASVGDRVTITCRASQDISSYLNWYQQKPGKAPKLLIYYTSRLHSGVPSRFSGSGSGTDFTFTISSLQPEDIATYYCQQGNTLPYTFGQGTKVEIK | – | – | – | – | 53.2 | 45
